According to FireProtDB (doi:10.1002/pro.381):

Conditions: Kitasatospora aureofaciens, pH 7, CD, MOPS 30 mM, whole UniProt chain shown; for denaturant m value / denaturant midpoint (higher = more stable) / unfolding free energy: 25 °C

B1: Guanyl-specific ribonuclease Sa wild type, P05798 (protein)
chain: DVSGTVCLSALPPEATDTLNLIASDGPFPYSQDGVVFQNRESVLPTQSYGYYHEYTVITPGARTRGTRRIITGEATQEDYYTGDHYATFSLIDQTC
- denaturant m value (GdnHCl): 2.43 kcal/mol/M
- denaturant midpoint (higher = more stable) (GdnHCl): 2.99 M
- unfolding free energy (GdnHCl): 7.3 kcal/mol
- denaturant m value (Urea): 0.96 kcal/mol/M
- denaturant midpoint (higher = more stable) (Urea): 6.06 M
- unfolding free energy (Urea): 5.8 kcal/mol
- Tm (Thermal): 49.3 °C
- heat capacity change of unfolding (Thermal): 1.52 kcal/mol/K
- unfolding enthalpy (van 't Hoff) (Thermal): 93 kcal/mol
